Assay results reported in patent publication US20140322759.
Numbering of substitutions follows the chain as printed.

How the values were obtained:
Test in all cases: EMSA
[1] = target: T1, phi29 DNA polymerase E221K E221K (Bacillus phage phi29) (UniProt P03680); conditions: SD 18.4; unit not given (μM in assay); pH 7.9, 66 mM K-acetate, 30 C
T1 sequence: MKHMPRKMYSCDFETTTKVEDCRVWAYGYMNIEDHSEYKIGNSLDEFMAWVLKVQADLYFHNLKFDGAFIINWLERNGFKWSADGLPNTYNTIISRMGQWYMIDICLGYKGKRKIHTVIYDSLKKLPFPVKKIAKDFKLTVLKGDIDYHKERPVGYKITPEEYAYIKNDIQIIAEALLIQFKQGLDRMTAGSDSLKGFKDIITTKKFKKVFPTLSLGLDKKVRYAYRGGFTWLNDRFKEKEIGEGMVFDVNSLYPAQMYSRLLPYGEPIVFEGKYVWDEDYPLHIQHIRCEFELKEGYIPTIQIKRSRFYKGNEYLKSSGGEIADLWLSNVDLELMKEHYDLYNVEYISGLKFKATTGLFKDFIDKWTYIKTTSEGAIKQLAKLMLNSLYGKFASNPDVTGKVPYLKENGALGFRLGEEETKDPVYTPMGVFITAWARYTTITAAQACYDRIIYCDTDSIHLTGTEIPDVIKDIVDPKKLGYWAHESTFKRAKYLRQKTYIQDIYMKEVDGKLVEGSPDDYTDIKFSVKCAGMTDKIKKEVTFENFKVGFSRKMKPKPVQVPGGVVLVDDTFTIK

[2] = target: T2, phi29 DNA polymerase G197D G197D (Bacillus phage phi29) (UniProt P03680); conditions: SD 25.7; unit not given (μM in assay); pH 7.9, 66 mM K-acetate, 30 C
T2 sequence: T1 sequence with G197D, K221E

[3] = target: T3, phi29 DNA polymerase M97T M97T (Bacillus phage phi29) (UniProt P03680); conditions: SD 2.5; unit not given (μM in assay); pH 7.9, 66 mM K-acetate, 30 C
T3 sequence: T1 sequence with M97T, K221E

[4] = target: T4, phi29 DNA polymerase F526L F526L (Bacillus phage phi29) (UniProt P03680); conditions: SD 24.2; unit not given (μM in assay); pH 7.9, 66 mM K-acetate, 30 C
T4 sequence: T1 sequence with K221E, F526L

“GATCACAGTGAGTAC / TCTATTGTACTCACTGTGATC [15-mer/21-mer primer/template]” showed a Kd [1] of 67 µM, a Kd [2] of 51 µM and a Kd [3] of 37 µM. It also gave a Kd [4] of 53 µM.
